38 sequences from the supplement of paper PMC9170038 can be followed below.

In data set [1] the test system is MS2 coat protein. Kind of data set: apparent KD of MS2 coat protein, switch ON state; designed switch direction (-1 OFF switch, 1 ON switch): 1; higher = weaker reporter binding. The conditions noted are these: FMN input: 0 or 200 uM; Eterna round: R93 (includes R88 designs). In short, it runs like this: (§1)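 Designed RNA switches were transcribed on-chip from Illumina sequencing clusters and titrated with SNAP-549-labelled MS2 coat protein in twofold steps from 0.7 or 1.5 nM up to 3 µM. Each step lasted 0.8–1.5 h at first and 10–20 min by the end, in 100 mM Tris-HCl pH 7.5, 80 mM KCl and 4 mM MgCl2, without or with constant ligand. Apparent KD is the median, for each design, of fits to normalised cluster binding curves.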

In data set [2] the test system is MS2 coat protein. Kind of data set: apparent KD of MS2 coat protein, switch OFF state (with FMN for OFF switches, without FMN for ON switches); designed switch direction (-1 OFF switch, 1 ON switch): 1; higher = weaker reporter binding. The conditions noted are these: FMN input: 0 or 200 uM; Eterna round: R93 (includes R88 designs). In short, it runs like this:
as §1

Consider “AACAAUCUAUCUGAGGAUAUGUGUCGAAAGACAUGAGGAUCACCCAUGUGAAAACAUGGAAAAACACAGAAGGCAGAUAGAUUGA [SS2: 1150]”, for which the “apparent KD of MS2 coat protein” value in the data set on MS2 coat protein [1] came to 147 nM; in the data set with MS2 coat protein [2], 202 nM.
As to “AGAAAUAAAAGGGAGGAUAUUCAAAAAGGGACAUGAGGAUCACCCAUGUAAAAGAAAAUAAAAUGGGAGAAGGCUCAAAAUAAAG [80%, More Helter Skelter 2]”, the “apparent KD of MS2 coat protein” value came out at 1130 nM in the data set on MS2 coat protein [1] and 748 nM in the data set with MS2 coat protein [2].
For “UGCAGGAAGAGAGAGGAUAUCCAAAGGAAAACAUGAGGAUCACCCAUGUAAAAGGUAGGAAAUUGGGAGAAGGCUCAAGAGAGAG [salish99-ss2-098]”, in that order: 33.1 nM and 28.3 nM.
For “GAAAAACAUGAGGAUCACCCAUGUGAAAAUAUGGGAGGAUAUACGAAGUCGAAAGUCAAAGUAGAAGGCCUAAAAG [Garnet 32]”, in that order: 43.6 nM and 155 nM.
In the case of “AUAUAUAUAAGGUAGGAUAUCCAAAAGUAAACAUGAGGAUCACCCAUGUAAAGAAAGAAACAAUGGGAGAAGGACCAUAUAUAUA [77%, More Tesla, 3]”, the “apparent KD of MS2 coat protein” value in the data set with MS2 coat protein [1] is 9.5 nM; in the data set with MS2 coat protein [2] it was 24 nM.
For “AAUCCACAUGAGGAUCACCCAUGUCAGGAAAUGACAGGAUAUAGCGAAAAAAAAAAAAAGCUAGAAGGGUCUAAUU [SameState1-cac2]”, the “apparent KD of MS2 coat protein” value is 31.3 nM in the data set with MS2 coat protein [1] and 107 nM in the data set with MS2 coat protein [2].
For “AAAAAACAUGAGGAUCACCCAUGUAAUACAACAUCAGGAUAUUGGCUUUACUAUGUAUUACAAGAAGGGAUGAAAA [Same State 1.3c (Same State 1 - Omei 2 )]”, in that order: 171 nM and 53.8 nM.
The matching figures for “UGCCAAUUGGCACAGGAUAUGAGCAUGCUCACAUGAGGAUCACCCAUGUGAUUACCAACGCAAUAUCAGAAGGGUGCCCUCGUCA [Relageor]”: 32.1 nM and 50.4 nM.
“AACUAACAUGAGGAUCACCCAUGUUACAGCAGUUGAGGAUAUGUGGGUGAAAAUAGCACGGCAGAAGGCGAGUGUA [SameState1 Malc#23]”: the “apparent KD of MS2 coat protein” value came to 237 nM in the data set with MS2 coat protein [1] and 150 nM in the data set on MS2 coat protein [2].
For “AAAAAAAAGGGUGAGGAUAUAGAAAAAAAAACAUGAGGAUCACCCAUGUGAAAAAAAAAAAAAAGCUAGAAGGCACAAAAAAAAAA [Same State 2]”, in that order: 79.2 nM and 159 nM.
The matching figures for “AAUAUACAUGAGGAUCACCCAUGUUAGGUGGGACUAGGAUAUCAAAAUAAAUAAUGAACAUGAGAAGGAGUAUCAA [JR_SS001_Sub402]”: 130 nM and 190 nM.
For the sequence “GGUACAGCUAGUUAGGAUAUCAGGUGUAAGACAUGAGGAUCACCCAUGUCCUAAGAACAGGUAACUGAGAAGGAACAGGGCGUCC [JR_SS002_Sub415]”, the “apparent KD of MS2 coat protein” value is 27.3 nM with MS2 coat protein [1] and 90 nM in the data set on MS2 coat protein [2].
Consider “GGGAAGAAGAGAGAGGAUAUCCAAAGGAAAACAUGAGGAUCACCCAUGUAAAAGGUAGGAAAUUGGGAGAAGGCUCAAAAGAGAG [salish99-ss2-034]”, for which the figures for the “apparent KD of MS2 coat protein” value in the data set on MS2 coat protein [1] and in the data set with MS2 coat protein [2] were 20.6 nM and 40.8 nM, respectively.
For “UGGAGACAUGAGGAUCACCCAUGUGAGAAGAGGCGAGGAUAUCGAAAGAAAGAAGAGAAACGAGAAGGCGCGAGCC [salish99-SS1-048]”, in that order: 36.2 nM and 49.9 nM.
For the sequence “CACAGAGUGGCGUAGGAUAUGUACAUGAGUACAUGAGGAUCACCCAUGUGGGCGUGAAAUUACGAGCAGAAGGGCGUCGCCUGUG [Edradi]”, the “apparent KD of MS2 coat protein” value was 24.4 nM with MS2 coat protein [1] and 135 nM in the data set on MS2 coat protein [2].
The matching figures for “AAUAAUUAUAGCAAGGAUAUCGGUAUAAAGACAUGAGGAUCACCCAUGUAAUAUGGUUAAAUUUACGAGAAGGUGCAGGGUGAAA [JR_SS002_Sub009]”: 170 nM and 142 nM.
The matching figures for “AACGAACAUGAGGAUCACCCAUGUUCCAGCAGUUGAGGAUAUGUGGGUGAAAAUAGCACGGCAGAAGGCGAGUGUA [SameState1 Malc#22]”: 79.8 nM and 82.1 nM.
For “AUAAGACAUGAGGAUCACCCAUGUAUAAGAGCAUGAGGAUAUAUGAAAAGUAAUAGGAGGAUAGAAGGCAUGGUUG [JR_SS001_Sub1219]”, in that order: 89.7 nM and 102 nM.
In the case of “GCAGGGCCGUACUAGGAUAUGGGUGUAAAGACAUGAGGAUCACCCAUGUGAUGGCAAAACAAAGCUCAGAAGGAGUCGCGGCCCA [Cemavebi]”, the “apparent KD of MS2 coat protein” value in the data set on MS2 coat protein [1] turned out to be 20.7 nM; with MS2 coat protein [2] it was 129 nM.
Take “AAAACACAUGAGGAUCACCCAUGUAAAAACAAGAGAGGAUAUGCUUGGAAAACAUGCUAUGCAGAAGGCUCAAGUG [SS1 - 10]”: the “apparent KD of MS2 coat protein” value with MS2 coat protein [1] was determined as 19.2 nM; with MS2 coat protein [2], 24.5 nM.
For “AAUAUACAUGAGGAUCACCCAUGUUAGGUGGGUCAAGGAUAUCAAUAUAAAUAAAAAACUUGAGAAGGUGAAUAAA [JR_SS001_Sub019]”, in that order: 133 nM and 155 nM.
For “AAAAAACAUGAGGAUCACCCAUGUAGAAACAUGGGAGGAUAUACAAAGACGAAAGUCAAAGUAGAAGGCCUAAAAG [Mat - Same State 1 - Mod - D158]”, the “apparent KD of MS2 coat protein” value in the data set on MS2 coat protein [1] amounted to 224 nM; in the data set with MS2 coat protein [2], 69.2 nM.
For “AAAAAAUAAAAAAAGGAUAUAAAUGGUACAACAUGAGGAUCACCCAUGUAGUACCAAAAAAUAAAAAAGAAGGAAAAAUAAAAAA [SS2: MS2 22]”, in that order: 20.8 nM and 23.7 nM.
The matching figures for “AAAAAACAUGAGGAUCACCCAUGUCAAAAGACGUGAGGAUAUGUACAGACUUCGGUCUGUACAGAAGGCACAAAAA [SS1 - 1031]”: 17.2 nM and 40.3 nM.
The matching figures for “AAAUAAAGGACUGAGGAUAUACCACAUGAAACAUGAGGAUCACCCAUGUAGAAAUACAAGCGGUGGUAGAAGGCAGUCCACAAAC [Same State 2.5i ( so lets mod hyphema)]”: 21.2 nM and 20.4 nM.
With “AAAAAACAUGAGGAUCACCCAUGUGCAAAAUUCGCAGGAUAUUCCUCAAUUAAAUGAGAGGAAGAAGGGUGAAAAA [Nob's Hobby 26 - Jieux - Same State 1]”, the “apparent KD of MS2 coat protein” value in the data set with MS2 coat protein [1] was 21.3 nM; in the data set with MS2 coat protein [2], 171 nM.
For “AAGAAACAUGAGGAUCACCCAUGUAGAAAUAUGGGAGGAUAUACGAAGACGAAAGUCAAAGUAGAAGGCCUAAAGA [Mat - Same State 1 - Eli mod - D106]”, in that order: 20.3 nM and 61.5 nM.
In the case of “GGAAAACAUGAGGAUCACCCAUGUGAAAACGUGGGAGGAUAUGCAUGGAAACCAUACUGUGCAGAAGGCCCAUGUC [EteRNA is fun!]”, the figures for the “apparent KD of MS2 coat protein” value in the data set with MS2 coat protein [1] and in the data set with MS2 coat protein [2] were 17.2 nM and 59.4 nM, respectively.
The matching figures for “GAAAAACAUGAGGAUCACCCAUGUAGAAACAUGGGAGGAUAUACAAAGACGAAAGUCAAAGUAGAAGGCCUAAAAG [Mat - Same State 1 - Mod - D159]”: 207 nM and 119 nM.
As for “AAUAAAAAUAGUUAGGAUAUGAGAACUAGGACAUGAGGAUCACCCAUGUAACUAGAACAAGUAAAUCAGAAGGGACAGGGUGAAA [JR_SS002_Sub203]”, the figures for the “apparent KD of MS2 coat protein” value in the data set with MS2 coat protein [1] and with MS2 coat protein [2] were 41.9 nM and 19 nM, respectively.
For “GAAAAACAUGAGGAUCACCCAUGUAGAAAUAUGGGAGGAUAUACGAAGACGAAAGUCGAAGUAGAAGGCCUAAAAG [Mat - Same State 1 - Eli mod - D24]”, in that order: 27 nM and 84.9 nM.
The matching figures for “AAUAUACAUGAGGAUCACCCAUGUUUUAAUAACUCAGGAUAUACAGGUGAAAACAGCAUAGUAGAAGGGAGAAAAA [SameState1 Malc#3]”: 18.2 nM and 23.2 nM.
For “AGAAGACAUGAGGAUCACCCAUGUAGGAAUAUGGGAGGAUAUACAAAGACGAAAGUCAGAGUAGAAGGCCUAGGAA [salish99-SS1-090]”, in that order: 18.5 nM and 53 nM.
As for “GUAGAACAUGAGGAUCACCCAUGUGAAGACGCAUGAGGAUAUAUAAGUAAAUAGCAUAAGAUAGAAGGCAUGAUAA [JR_SS001_Sub1702]”, the “apparent KD of MS2 coat protein” value with MS2 coat protein [1] stood at 76 nM; in the data set with MS2 coat protein [2], 113 nM.
As for “AAAGAAUGAAGGCAGGAUAUGUGAAAAAAAACAUGAGGAUCACCCAUGUAAUAGAUGGUGAAAAGGCAGAAGGGCCAAGAAACAA [SS 2 Tesla 6]”, the “apparent KD of MS2 coat protein” value stood at 12.4 nM with MS2 coat protein [1] and 199 nM in the data set on MS2 coat protein [2].
For “AAAUAACAUGAGGAUCACCCAUGUUGCAACGGUAGAGGAUAUGUGGGUGAAAAUAGCAUGGCAGAAGGCUAGUGUA [SameState1 Malc#28]”, in that order: 172 nM and 110 nM.
For “AUAAAACAUGAGGAUCACCCAUGUCAAGAGUAUUAAGGAUAUGAGCCAGGGAACUGGCGAUCAGAAGGUGAGACUC [Atxerexebe]”, in that order: 160 nM and 46.7 nM.
For the sequence “AAGAAACAUGAGGAUCACCCAUGUAAGAUAAACACAGGAUAUGCGAAAGAAACAAAAGAAGCAGAAGGGUGAAGAA [Mat - Same State 1 - Tesla mod - D146]”, the figures for the “apparent KD of MS2 coat protein” value in the data set on MS2 coat protein [1] and in the data set on MS2 coat protein [2] were 17.1 nM and 29.4 nM, respectively.
